This note sets out measurements from article doi:10.64898/2025.12.19.695423.

For this test, the target named is Huntingtin Exon 1 with 44 glutamines (HttEx1Q44) amyloid fibrils. The experiment in a line: MST.

On to “E3 ubiquitin ligase CHIP (from UniProt Q9UNE7 1-303) (enzyme)”, for which the K app with FP20 was found to be 170 nM and the Kd – broadly, the free concentration of one partner at which half of the binding sites on the other are occupied at equilibrium, for simple one-to-one binding – came out at 460 nM.
